# Data published in patent US9981005.
# Target: Skp1-FBXW7 complex (human FBXW7 residues 263-707 with truncated Skp1) (human) (UniProt P63208)
# Assay: isothermal titration calorimetry, Skp1-FBXW7, 25 °C
# Skp1-FBXW7 complex (human FBXW7 residues 263-707 with truncated Skp1) (human), sequence (chain, as listed by the source limits assumed, chain 1 of 2): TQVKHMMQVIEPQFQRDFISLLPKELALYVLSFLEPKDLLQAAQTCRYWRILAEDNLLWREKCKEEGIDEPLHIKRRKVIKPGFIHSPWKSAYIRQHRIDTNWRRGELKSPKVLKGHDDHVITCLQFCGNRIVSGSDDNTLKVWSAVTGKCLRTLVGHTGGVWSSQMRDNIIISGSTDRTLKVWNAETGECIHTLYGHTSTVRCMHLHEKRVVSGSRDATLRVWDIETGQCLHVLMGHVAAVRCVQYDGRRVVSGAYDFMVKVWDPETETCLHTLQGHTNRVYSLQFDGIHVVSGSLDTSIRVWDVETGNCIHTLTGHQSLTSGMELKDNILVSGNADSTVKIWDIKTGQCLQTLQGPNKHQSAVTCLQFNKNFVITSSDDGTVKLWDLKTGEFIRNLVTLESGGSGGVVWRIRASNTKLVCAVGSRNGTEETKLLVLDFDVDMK
# Skp1-FBXW7 complex (human FBXW7 residues 263-707 with truncated Skp1) (human), sequence (P63208 whole entry, chain 2 of 2, the tested form may be a part): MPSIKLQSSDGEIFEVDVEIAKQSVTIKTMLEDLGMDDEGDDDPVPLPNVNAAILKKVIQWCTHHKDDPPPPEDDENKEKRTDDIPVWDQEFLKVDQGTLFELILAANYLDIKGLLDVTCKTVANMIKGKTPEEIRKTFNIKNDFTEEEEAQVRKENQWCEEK
substance,measurement,value
doubly-phosphorylated test peptide VPPpTPPGpSH,Kd,1000 nM
